Consider 3 molecules from patent US20050003416.

The test system of data set [1] is T1, SolCorinPD-EK (soluble modified human corin protease domain, zymogen).
T1 sequence: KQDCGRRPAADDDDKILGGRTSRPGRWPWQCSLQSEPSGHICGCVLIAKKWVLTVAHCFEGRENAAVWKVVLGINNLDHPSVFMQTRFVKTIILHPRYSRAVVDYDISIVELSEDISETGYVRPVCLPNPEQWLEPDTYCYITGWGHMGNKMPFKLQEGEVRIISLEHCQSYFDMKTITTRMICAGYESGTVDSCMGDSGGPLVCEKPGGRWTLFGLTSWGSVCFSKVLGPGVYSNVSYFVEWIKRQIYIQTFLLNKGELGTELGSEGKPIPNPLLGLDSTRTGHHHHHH

Data set [2] concerns T2, SolCorin-EK (soluble modified human corin, zymogen).
T2 sequence: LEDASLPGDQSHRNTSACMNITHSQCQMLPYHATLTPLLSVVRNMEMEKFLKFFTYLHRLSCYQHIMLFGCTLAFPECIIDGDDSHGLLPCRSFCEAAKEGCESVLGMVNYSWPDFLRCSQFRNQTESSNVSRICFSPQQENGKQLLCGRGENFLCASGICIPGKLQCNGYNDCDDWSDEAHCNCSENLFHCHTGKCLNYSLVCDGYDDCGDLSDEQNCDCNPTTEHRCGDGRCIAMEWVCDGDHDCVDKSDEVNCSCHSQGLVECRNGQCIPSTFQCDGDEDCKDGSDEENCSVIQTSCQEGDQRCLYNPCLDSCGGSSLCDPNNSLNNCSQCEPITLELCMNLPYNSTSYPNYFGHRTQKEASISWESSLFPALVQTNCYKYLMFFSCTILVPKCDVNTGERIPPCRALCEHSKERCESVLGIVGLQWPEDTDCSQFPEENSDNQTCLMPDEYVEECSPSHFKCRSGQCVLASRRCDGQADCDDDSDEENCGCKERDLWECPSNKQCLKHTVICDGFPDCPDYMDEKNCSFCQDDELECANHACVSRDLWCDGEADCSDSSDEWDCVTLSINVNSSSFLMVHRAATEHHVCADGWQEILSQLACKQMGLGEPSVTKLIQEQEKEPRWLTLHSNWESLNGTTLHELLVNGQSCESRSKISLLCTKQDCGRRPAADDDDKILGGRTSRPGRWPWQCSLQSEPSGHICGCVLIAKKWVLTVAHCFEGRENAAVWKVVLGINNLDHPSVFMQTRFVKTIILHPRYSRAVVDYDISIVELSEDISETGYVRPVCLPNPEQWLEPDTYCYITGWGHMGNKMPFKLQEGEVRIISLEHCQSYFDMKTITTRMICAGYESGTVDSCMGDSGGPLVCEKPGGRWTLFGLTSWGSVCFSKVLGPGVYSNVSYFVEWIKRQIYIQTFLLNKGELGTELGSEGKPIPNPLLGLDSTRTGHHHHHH

The target of data set [3] is T3, recombinant human wild-type pro-ANP with C-terminal V5 and 6xHis tags, P01160.
T3 chain: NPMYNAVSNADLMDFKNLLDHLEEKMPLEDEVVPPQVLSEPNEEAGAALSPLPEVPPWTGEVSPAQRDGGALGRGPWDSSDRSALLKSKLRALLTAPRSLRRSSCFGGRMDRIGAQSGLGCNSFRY

As to purified enterokinase (Calbiochem), the “cleavage of soluble corin by 0, 2, 10, 20 or 40 units enterokinase, 25 C, 4 hrs (anti-V5 Western blot)” value in data set [1] is “both the long form (SolCorin-EK) and short form (SolCorinPD-EK) of soluble modified human corin were cleaved by exposure to enterokinase in a dose-dependent manner”; in data set [2], “both the long form (SolCorin-EK) and short form (SolCorinPD-EK) of soluble modified human corin were cleaved by exposure to enterokinase in a dose-dependent manner”.

B1: enterokinase-activated SolCorin-EK (protein)
chain 1: LEDASLPGDQSHRNTSACMNITHSQCQMLPYHATLTPLLSVVRNMEMEKFLKFFTYLHRLSCYQHIMLFGCTLAFPECIIDGDDSHGLLPCRSFCEAAKEGCESVLGMVNYSWPDFLRCSQFRNQTESSNVSRICFSPQQENGKQLLCGRGENFLCASGICIPGKLQCNGYNDCDDWSDEAHCNCSENLFHCHTGKCLNYSLVCDGYDDCGDLSDEQNCDCNPTTEHRCGDGRCIAMEWVCDGDHDCVDKSDEVNCSCHSQGLVECRNGQCIPSTFQCDGDEDCKDGSDEENCSVIQTSCQEGDQRCLYNPCLDSCGGSSLCDPNNSLNNCSQCEPITLELCMNLPYNSTSYPNYFGHRTQKEASISWESSLFPALVQTNCYKYLMFFSCTILVPKCDVNTGERIPPCRALCEHSKERCESVLGIVGLQWPEDTDCSQFPEENSDNQTCLMPDEYVEECSPSHFKCRSGQCVLASRRCDGQADCDDDSDEENCGCKERDLWECPSNKQCLKHTVICDGFPDCPDYMDEKNCSFCQDDELECANHACVSRDLWCDGEADCSDSSDEWDCVTLSINVNSSSFLMVHRAATEHHVCADGWQEILSQLACKQMGLGEPSVTKLIQEQEKEPRWLTLHSNWESLNGTTLHELLVNGQSCESRSKISLLCTKQDCGRRPAADDDDK
chain 2: ILGGRTSRPGRWPWQCSLQSEPSGHICGCVLIAKKWVLTVAHCFEGRENAAVWKVVLGINNLDHPSVFMQTRFVKTIILHPRYSRAVVDYDISIVELSEDISETGYVRPVCLPNPEQWLEPDTYCYITGWGHMGNKMPFKLQEGEVRIISLEHCQSYFDMKTITTRMICAGYESGTVDSCMGDSGGPLVCEKPGGRWTLFGLTSWGSVCFSKVLGPGVYSNVSYFVEWIKRQIYIQTFLLNKGELGTELGSEGKPIPNPLLGLDSTRTGHHHHHH
For B1, in data set [3], the “processing of pro-ANP to ANP in mixed conditioned media, 4 C, 3 hours (anti-V5 immunoprecipitation and Western blot)” value was “pro-ANP was processed to ANP by the long form (SolCorin-EK), but not the short form (SolCorin-PD-EK), of soluble modified human corin upon activation by enterokinase in vitro”.

B2: enterokinase-activated SolCorinPD-EK (protein)
chain 1: KQDCGRRPAADDDDK
chain 2: ILGGRTSRPGRWPWQCSLQSEPSGHICGCVLIAKKWVLTVAHCFEGRENAAVWKVVLGINNLDHPSVFMQTRFVKTIILHPRYSRAVVDYDISIVELSEDISETGYVRPVCLPNPEQWLEPDTYCYITGWGHMGNKMPFKLQEGEVRIISLEHCQSYFDMKTITTRMICAGYESGTVDSCMGDSGGPLVCEKPGGRWTLFGLTSWGSVCFSKVLGPGVYSNVSYFVEWIKRQIYIQTFLLNKGELGTELGSEGKPIPNPLLGLDSTRTGHHHHHH
In the case of B2, the “processing of pro-ANP to ANP in mixed conditioned media, 4 C, 3 hours (anti-V5 immunoprecipitation and Western blot)” value in data set [3] was “pro-ANP was processed to ANP by the long form (SolCorin-EK), but not the short form (SolCorin-PD-EK), of soluble modified human corin upon activation by enterokinase in vitro”.
